The labels stand for the following.
T1: human LAG-3 domain 1-2 Fc fusion, point mutation #66 G126A (human, UniProt P18627 23-266)
T1 construct: not shown: human IgG1 Fc, AA P101-K330
T1 sequence: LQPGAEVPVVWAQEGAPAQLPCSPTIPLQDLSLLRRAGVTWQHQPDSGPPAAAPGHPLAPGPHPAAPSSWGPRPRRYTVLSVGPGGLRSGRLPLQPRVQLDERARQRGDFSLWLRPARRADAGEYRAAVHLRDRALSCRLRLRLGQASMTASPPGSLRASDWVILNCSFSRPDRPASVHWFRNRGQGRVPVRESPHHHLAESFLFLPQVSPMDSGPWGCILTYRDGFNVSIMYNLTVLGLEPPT

T2: human LAG-3 domain 1-2 Fc fusion, point mutation #26 P79A (human, UniProt P18627 23-266)
T2 construct: not shown: human IgG1 Fc, AA P101-K330
T2 sequence: T1 sequence with P57A, A104G

T3: human LAG-3 domain 1-2 Fc fusion, point mutation #59 Q117A (human, UniProt P18627 23-266)
T3 construct: not shown: human IgG1 Fc, AA P101-K330
T3 sequence: T1 sequence with Q95A, A104G

T4: human LAG-3 domain 1-2 Fc fusion, point mutation #57 R113A (human, UniProt P18627 23-266)
T4 construct: not shown: human IgG1 Fc, AA P101-K330
T4 sequence: T1 sequence with R91A, A104G

T5: human LAG-3 domain 1-2 Fc fusion, point mutation #45 R98A (human, UniProt P18627 23-266)
T5 construct: not shown: human IgG1 Fc, AA P101-K330
T5 sequence: T1 sequence with R76A, A104G

T6: human LAG-3 domain 1-2 Fc fusion, point mutation #63 D123A (human, UniProt P18627 23-266)
T6 construct: not shown: human IgG1 Fc, AA P101-K330
T6 sequence: T1 sequence with D101A, A104G

T7: human LAG-3 domain 1-2 Fc fusion, point mutation #77 R148A (human, UniProt P18627 23-266)
T7 construct: not shown: human IgG1 Fc, AA P101-K330
T7 sequence: T1 sequence with A104G, R126A

T8: human LAG-3 domain 1-2 Fc fusion, point mutation #62 Q121A (human, UniProt P18627 23-266)
T8 construct: not shown: human IgG1 Fc, AA P101-K330
T8 sequence: T1 sequence with Q99A, A104G

T9: human LAG-3 domain 1-2 Fc fusion, point mutation #23 P76A (human, UniProt P18627 23-266)
T9 construct: not shown: human IgG1 Fc, AA P101-K330
T9 sequence: T1 sequence with P54A, A104G

B1: Fab fragment of antibody 15011 (Fab, V domains shown, not shown: a dimerising Fc or GST)
VH: EVQLLESGGGLVQPGGSLRLSCAASGFDFRSYAMMWVRQAPGKGLEWVGGINGEVGGSNTYYAPAVKGRATISRDNSKNTLYLQMNSLRAEDTAVYYCVKGAGACGICNDDIDAWGQGTLVTVSS
VL: SYELTQDPAVSVALGQTVRITCSGAGSYAGSYYYGWHQQKPGQAPVTVIYDNDKRPSNIPDRFSGSSSGNTASLTITGAQAEDEADYYCGSTNDNDDGGLFGSGTKVTVLG
notes: monomeric Fab made by GingisKHAN digestion of the IgG1
B2: Fab fragment of antibody 15572 (Fab, V domains shown, not shown: a dimerising Fc or GST)
VH: QLQLQESGPGLVKPSETLSLTCTVSGDSISSSSYYWGWIRQPPGKGLEWIGSIFYSGNTYYNPSLKSRVTISVDTSKNQFSLKLSSVTAADTAVYYCAREDDFLTDYYGAFDIWGQGTMVTVSS
VL: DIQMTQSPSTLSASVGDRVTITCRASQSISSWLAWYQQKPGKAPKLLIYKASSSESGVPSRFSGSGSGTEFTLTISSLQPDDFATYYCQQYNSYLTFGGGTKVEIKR
notes: as for B1
B3: Fab fragment of antibody 15532 (Fab, V domains shown, not shown: a dimerising Fc or GST)
VH: QVQLQQWGAGLLRPSETLSLTCAVYGESFSGYYWNWIRQPPGKGLEWIGEINHSGSTNYNPSLKSRVTISVDTSKTQFSLKLSSVTAADTAVYYCARGWDLLDWNDYWNEYWGQGTLVTVSS
VL: EIVLTQSPATLSLSPGERATLSCRASQSVSSYLAWYQQKPGQAPRLLIYDASNRATGIPARFSGSGSGTDFTLTISSLEPEDFAVYYCQQRSNWPLTFGGGTKVEIKR
notes: as for B1
B4: Fab fragment of antibody 15431 (Fab, V domains shown, not shown: a dimerising Fc or GST)
VH: QVQLQQSGPGLVKPSQTLSLTCAISGDSVSSNSAAWNWIRQSPSRGLEWLGRTYYRSKWYNDYAVSVKSRITINPDTSKNQFSLQLNSVTPEDTAVYYCARDDDWNDFDYWGQGTLVTVSS
VL: B3 VL
notes: as for B1

Where a chain is given by its changes, count along the chain named.

The target of the first test is T1, human LAG-3 domain 1-2 Fc fusion, point …. Put plainly: SPR, Fab over captured mutant LAG-3-Fc.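 Further: fc fusion variants captured on anti-human IgG Fc sensor, Fab injected with association then dissociation phases, KD obtained from Langmuir one-to-one fit.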
Experimental: (§1) The LAG-3 fusion proteins were immobilized onto a G-a-hu-IgG Fc SensEye® (Ssens BV, The Netherlands) for 15 minutes using a Continuous Flow Microspotter (CFM, Wasatch Microfluidics, Salt Lake City, US). After spotting, the SensEye® was positioned in an IBIS MX96 biosensor and captured proteins were evaluated for binding affinity. […] Fab association was performed for 15 minutes and antigen dissociation was performed for 15 minutes. The recorded binding responses were fitted to a simple Langmuir 1:1 binding model with Scrubber 2 software for calculation of the on-rate (kon or ka), off-rate (koff or kd) and affinity (KD) constants.
Consider B1, for which the “KD mutant/KD wild type” value came to 0.9 fold.
Still for that read-out and setting: as for B2, the figure is 0.9 fold.
Turning to B3, the “KD mutant/KD wild type” value came out at 0.9 fold.
On the same count and under the same terms, with B4 the figure was 0.9 fold.

The target in another test is T2, human LAG-3 domain 1-2 Fc fusion, point …. Put plainly: SPR, Fab over captured mutant LAG-3-Fc.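 Further: fc fusion variants captured on anti-human IgG Fc sensor, Fab injected with association then dissociation phases, KD obtained from Langmuir one-to-one fit.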
Experimental: as §1
Consider B1, for which the “KD mutant/KD wild type” value turned out to be 0.6 fold.
Regarding B2, the “KD mutant/KD wild type” value is 0.4 fold.
Same read-out and setting: with B3 the figure was 0.9 fold; with B4, 0.4 fold.

The next test deals with T3, human LAG-3 domain 1-2 Fc fusion, point …. Put plainly: SPR, Fab over captured mutant LAG-3-Fc.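 Further: fc fusion variants captured on anti-human IgG Fc sensor, Fab injected with association then dissociation phases, KD obtained from Langmuir one-to-one fit.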
Experimental: as §1
For B1, the “KD mutant/KD wild type” value turned out to be 0.7 fold.
Still for that read-out and setting: with B2 the figure was 0.5 fold; with B3, 0.8 fold.
On the same count and under the same terms, with B4 the figure was 0.4 fold.

The next test addresses T4, human LAG-3 domain 1-2 Fc fusion, point …. Nature of the test: SPR, Fab over captured mutant LAG-3-Fc.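 Further: fc fusion variants captured on anti-human IgG Fc sensor, Fab injected with association then dissociation phases, KD obtained from Langmuir one-to-one fit.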
Experimental: as §1
On to B1, for which the “KD mutant/KD wild type” value was 3.3 fold.
Still for that read-out and setting: with B2 the figure was 0.7 fold; with B3, 0.6 fold.
With B4, the “KD mutant/KD wild type” value was 0.9 fold.

The target in another test is T5, human LAG-3 domain 1-2 Fc fusion, point …. Nature of the test: SPR, Fab over captured mutant LAG-3-Fc.
Experimental: as §1
Turning to B1, the “KD mutant/KD wild type” value was determined as 1.2 fold.
Same read-out and setting: with B2 the figure was 0.9 fold; with B3, 1.6 fold.
For B4, the binding result is “no binding (tested: 300 nM)”.

A further test addresses T6, human LAG-3 domain 1-2 Fc fusion, point …. Nature of the test: SPR, Fab over captured mutant LAG-3-Fc.
Experimental: as §1
On to B1, for which the “KD mutant/KD wild type” value was 0.8 fold.
Still for that read-out and setting: with B2 the figure was 0.5 fold; with B3, 1 fold; with B4, 0.9 fold.

The next test deals with T7, human LAG-3 domain 1-2 Fc fusion, point …. Nature of the test: SPR, Fab over captured mutant LAG-3-Fc.
Experimental: as §1
In the case of B1, the “KD mutant/KD wild type” value was 0.7 fold.
B2: the binding result is recorded as “no binding (tested: 300 nM)”.
As to B3, the “KD mutant/KD wild type” value was determined as 2.9 fold.
B4: the binding result is reported as “no binding (tested: 300 nM)”.

For the next test, the target named is T8, human LAG-3 domain 1-2 Fc fusion, point …. Nature of the test: SPR, Fab over captured mutant LAG-3-Fc.
Experimental: as §1
Regarding B1, the “KD mutant/KD wild type” value was determined as 0.9 fold.
Still for that read-out and setting: with B2 the figure was 0.6 fold; with B3, 0.9 fold; with B4, 1 fold.

Another test has as its target T9, human LAG-3 domain 1-2 Fc fusion, point …. Put plainly: SPR, Fab over captured mutant LAG-3-Fc.
Experimental: as §1
On to B1, for which the “KD mutant/KD wild type” value came to 0.8 fold.
The same measure, in the same setting: with B2 the figure was 0.6 fold.
The same measure, in the same setting: as for B3, the figure is 1 fold.
On to B4, for which the “KD mutant/KD wild type” value turned out to be 0.7 fold.
